Legend:
[1] = Native ESI-MS oligomeric state of CIB2; type: physicochemical; conditions: 14 µM CIB2 in 200 mM ammonium acetate, pH 6.8; collision energy 60 V
Protocol: For native ESI-MS analyses (High-Mass Q-TOF II mass spectrometer, Waters/MSVision), CIB2 was prepared in 200 mM ammonium acetate, pH 6.8.

[2] = CIB2 stability at 25 °C without trypsin (SDS-PAGE); type: physicochemical; conditions: 10 µM CIB2, 10 minutes at 25 °C; EDTA, Mg^2+, Mg^2+ + Ca^2+
Protocol: Figure 5 CIB2 limited proteolysis. (A) 10 µM CIB2 was incubated at 25 °C in the presence of 1 mM EDTA (Apo), 500 µM EGTA + 1 mM Mg^2+ (Mg^2+) and 1 mM Mg^2+ + 2 mM Ca^2+ for 10 minutes at 25 °C. Samples were boiled and loaded in a 18% SDS polyacrylamide gel. (B) Limited proteolysis was performed incubating trypsin with 25 µM CIB2 in the same concentrations of ions used for (A) (protein:enzyme ratio was 100:1). Samples were collected at different times, boiled and loaded on a 18% SDS-PAGE. Both gels run for 45–50 min, then they were Coomassie Blue-stained. The figure results from two separate gels, which have been reported in full length in Fig. S6.

B1: CIB2: Recombinant human CIB2, Ca^2+ and Mg^2+-binding protein (protein)
chain: MGNKQTIFTEEQLDNYQDCTFFNKKDILKLHSRFYELAPNLVPMDYRKSPIVHVPMSLIIQMPELRENPFKERIVAAFSEDGEGNLTFNDFVDMFSVLCESAPRELKANYAFKIYDFNTDNFICKEDLELTLARLTKSELDEEEVVLVCDKVIEEADLDGDGKLGFADFEDMIAKAPDFLSTFHIRI
modifications: left off: His tag, end not stated, cleaved
oligomeric state, native MS [1]: no signals of CIB2 dimers, nor higher order oligomers were detected | degradation without trypsin [2]: some propensity to degradation
